Experiment [1] concerns the target T1, human SIRP-α v1 (human, UniProt P78324 31-149).
T1 construct: Soluble SIRP analyte in SPR; also called hSIRPa v1; Human V1
In words: SPR. As for the experimental part: The interactions of anti-SIRPα antibodies with SIRPα from various species (human v1, human v2, cynomolgus, mouse 129, BL6, BALBc, NOD), SIRPβ and SIRPγ were analyzed using two methods, direct immobilization of the antibodies (via GLC chip) or capture via biotinylated Protein A (via NLC chip), according to the following protocols. All experiments were performed at 25° C. using a SPR-based ProteOn XPR36 biosensor (BioRad. Inc, Hercules, Calif.) equipped with GLC or NLC sensor chips. […] Purification was carried out by standard Protein A affinity column chromatography and eluted antibodies were stored in PBS buffer.
Background: SPR reads the build-up and loss of mass on a sensor chip optically.

In experiment [2] the target is T2, human SIRP-γ (human, UniProt Q9P1W8 29-147).
T2 construct: Soluble SIRP analyte in SPR; also called hSIRPg; SIRPg
T2 sequence (Q9P1W8 29-147 limits assumed): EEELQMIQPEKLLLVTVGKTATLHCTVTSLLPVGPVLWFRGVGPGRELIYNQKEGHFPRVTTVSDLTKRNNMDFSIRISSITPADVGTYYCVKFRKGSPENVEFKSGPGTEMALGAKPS
The experiment can be described thus: SPR.

T1 sequence (P78324 31-149 limits assumed): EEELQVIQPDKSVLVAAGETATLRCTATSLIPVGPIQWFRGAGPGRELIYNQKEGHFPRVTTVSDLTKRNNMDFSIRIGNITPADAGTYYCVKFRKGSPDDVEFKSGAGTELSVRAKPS

B1: Hum1/AB21_HC_Mutall (antibody, V domains shown)
VH: EVQLVESGGGVVQPGGSLRLSCAASGFTFSSNAMSWVRQAPGKGLEWVAGISAGGSDTYYPASVKGRFTISRDNSKNTLYLQMNSLRAEDTAVYYCARETWNHLFDYWGQGTLVTVSS
VL: SYELTQPPSVSVSPGQTARITCSGGSYSSYYYAWYQQKPGQAPVTLIYSDDKRPSNIPERFSGSSSGTTVTLTISGVQAEDEADYYCGGYDQSSYTNPFGGGTKLTVL
notes: also called Hum1/AB21mutall
For B1, the Kd (in general, a measure of binding affinity in units of concentration) in experiment [1] was at most 10 pM; in experiment [2], over 1 pM.

Values taken from US20220324996A1 (published 2022).
